Patent publication US20210284691A1, “CBX8 CHROMDOMAIN INHIBITORS AND THE USES THEREOF” (Purdue Research Foundation, priority 2019, published 2021)
Square brackets hold non-standard residues; d marks the D form. Primed or numbered codes have the meaning given here. Ends that are not written are not given here. * marks the point of attachment. triazole = triazole formed by click reaction joining the C-terminal propargylamide to 5/6-carboxyfluorescein; Isoxazole3carbonyl(5-Me) = Cc1cc(C(=O)*)no1; Tyr(3-Cl) = N[C@@H](Cc1ccc(O)c(Cl)c1)C(=O)O; Lys(Me3) = C[N+](C)(C)CCCC[C@H](N)C(=O)O; Lys(Et2) = CCN(CC)CCCC[C@H](N)C(=O)O; triazole″ = not defined here; PEG4′ = not defined here; NH(propargyl) = C#CCN*

Columns and labels:
[1] = molecular target: T1, endogenous CBX7 (from cells / lysate) (human, UniProt O95931 1-251); experiment: chemoprecipitation from HEK293T nuclear lysate, immunoblot
T1 sequence (looked up): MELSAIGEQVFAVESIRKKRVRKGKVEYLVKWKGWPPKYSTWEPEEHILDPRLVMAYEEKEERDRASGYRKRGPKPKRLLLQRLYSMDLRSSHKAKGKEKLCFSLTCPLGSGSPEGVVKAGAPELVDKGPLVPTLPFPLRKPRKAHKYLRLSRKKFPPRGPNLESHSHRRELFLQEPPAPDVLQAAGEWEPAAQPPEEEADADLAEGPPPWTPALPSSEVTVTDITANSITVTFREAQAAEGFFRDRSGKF

[2] = molecular target: T2, BRG1 (endogenous, HEK293T nuclear lysate) (human, UniProt P51532 1-1647); experiment: as above
T2 construct: Non-specific control of the chemoprecipitation
T2 sequence (P51532 whole entry): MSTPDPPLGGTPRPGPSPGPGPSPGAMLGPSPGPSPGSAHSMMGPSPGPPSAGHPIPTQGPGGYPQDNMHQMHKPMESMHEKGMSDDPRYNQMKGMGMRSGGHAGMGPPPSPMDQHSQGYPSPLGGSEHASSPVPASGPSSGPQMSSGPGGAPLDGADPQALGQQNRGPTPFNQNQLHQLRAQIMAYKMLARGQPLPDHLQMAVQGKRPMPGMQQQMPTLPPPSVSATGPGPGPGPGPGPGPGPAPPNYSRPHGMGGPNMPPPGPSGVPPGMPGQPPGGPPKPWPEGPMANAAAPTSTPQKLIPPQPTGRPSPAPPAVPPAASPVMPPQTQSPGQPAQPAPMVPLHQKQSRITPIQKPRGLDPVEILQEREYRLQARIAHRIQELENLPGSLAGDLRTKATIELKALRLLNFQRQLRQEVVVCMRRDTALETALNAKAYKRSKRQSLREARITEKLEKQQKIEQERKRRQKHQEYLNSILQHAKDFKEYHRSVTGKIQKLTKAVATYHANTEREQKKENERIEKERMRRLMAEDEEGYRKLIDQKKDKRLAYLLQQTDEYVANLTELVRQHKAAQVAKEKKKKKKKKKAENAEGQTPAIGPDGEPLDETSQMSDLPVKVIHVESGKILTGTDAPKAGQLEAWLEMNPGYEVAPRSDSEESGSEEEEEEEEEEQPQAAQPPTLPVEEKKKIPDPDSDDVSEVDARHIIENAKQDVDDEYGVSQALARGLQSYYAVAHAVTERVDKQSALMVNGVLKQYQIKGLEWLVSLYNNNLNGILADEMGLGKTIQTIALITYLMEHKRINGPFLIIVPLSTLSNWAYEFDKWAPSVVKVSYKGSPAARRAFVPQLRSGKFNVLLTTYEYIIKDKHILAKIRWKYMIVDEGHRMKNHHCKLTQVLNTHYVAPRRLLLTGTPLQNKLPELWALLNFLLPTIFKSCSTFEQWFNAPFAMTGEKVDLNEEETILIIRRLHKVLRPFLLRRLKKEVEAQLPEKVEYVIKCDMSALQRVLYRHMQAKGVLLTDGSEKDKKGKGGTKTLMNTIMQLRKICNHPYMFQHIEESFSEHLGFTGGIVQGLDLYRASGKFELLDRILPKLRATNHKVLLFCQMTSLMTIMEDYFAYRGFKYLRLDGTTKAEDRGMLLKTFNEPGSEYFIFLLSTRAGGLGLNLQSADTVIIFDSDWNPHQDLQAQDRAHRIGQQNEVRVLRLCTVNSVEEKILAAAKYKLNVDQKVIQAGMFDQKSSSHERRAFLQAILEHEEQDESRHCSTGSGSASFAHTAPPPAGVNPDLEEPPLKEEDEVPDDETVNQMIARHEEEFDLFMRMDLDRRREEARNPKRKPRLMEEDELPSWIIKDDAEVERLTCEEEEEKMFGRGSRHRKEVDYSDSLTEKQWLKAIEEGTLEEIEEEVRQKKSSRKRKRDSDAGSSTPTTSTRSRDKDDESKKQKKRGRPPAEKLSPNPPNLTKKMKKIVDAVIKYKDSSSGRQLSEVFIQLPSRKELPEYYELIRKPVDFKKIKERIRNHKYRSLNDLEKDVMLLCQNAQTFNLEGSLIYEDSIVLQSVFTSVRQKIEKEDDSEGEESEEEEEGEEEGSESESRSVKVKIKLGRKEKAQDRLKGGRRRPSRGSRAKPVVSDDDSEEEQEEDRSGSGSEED

[3] = molecular target: T3, endogenous CBX4 (HEK293T nuclear lysate) (human, UniProt O00257 1-560, limits assumed); experiment: as above
T3 construct: Meant by 'any other paralogs' in the pulldown text
T3 sequence (looked up): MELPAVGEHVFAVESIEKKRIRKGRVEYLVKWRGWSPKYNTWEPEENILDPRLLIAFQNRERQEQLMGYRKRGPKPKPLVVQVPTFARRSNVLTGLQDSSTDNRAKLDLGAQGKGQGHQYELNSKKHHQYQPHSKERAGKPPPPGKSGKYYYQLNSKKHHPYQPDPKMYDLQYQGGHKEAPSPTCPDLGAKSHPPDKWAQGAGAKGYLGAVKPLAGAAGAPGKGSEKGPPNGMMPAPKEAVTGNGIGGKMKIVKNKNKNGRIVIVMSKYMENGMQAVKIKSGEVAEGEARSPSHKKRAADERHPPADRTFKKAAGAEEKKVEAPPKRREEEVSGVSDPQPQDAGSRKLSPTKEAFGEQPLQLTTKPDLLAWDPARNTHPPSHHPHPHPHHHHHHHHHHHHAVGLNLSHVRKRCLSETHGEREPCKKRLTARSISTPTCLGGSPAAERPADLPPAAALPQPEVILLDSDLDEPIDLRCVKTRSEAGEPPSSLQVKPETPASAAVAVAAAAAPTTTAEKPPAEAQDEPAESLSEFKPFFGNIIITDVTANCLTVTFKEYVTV

[4] = molecular target: T4, endogenous CBX6 (HEK293T nuclear lysate) (human, UniProt O95503 1-412); experiment: as above
T4 sequence (looked up): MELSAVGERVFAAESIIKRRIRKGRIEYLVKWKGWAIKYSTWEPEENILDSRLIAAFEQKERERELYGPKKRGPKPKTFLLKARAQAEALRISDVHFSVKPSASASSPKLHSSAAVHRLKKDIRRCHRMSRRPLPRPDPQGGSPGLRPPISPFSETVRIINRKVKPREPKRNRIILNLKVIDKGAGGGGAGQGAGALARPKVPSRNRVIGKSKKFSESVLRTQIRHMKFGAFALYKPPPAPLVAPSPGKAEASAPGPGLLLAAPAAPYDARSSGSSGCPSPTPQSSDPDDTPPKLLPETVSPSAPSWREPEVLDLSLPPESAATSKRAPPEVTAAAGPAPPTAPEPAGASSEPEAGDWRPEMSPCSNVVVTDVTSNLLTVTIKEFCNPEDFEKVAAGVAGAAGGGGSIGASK

[5] = molecular target: T5, CBX7 chromodomain (CBX7 ChD), N-terminal His6-tagged recombinant protein (UniProt O95931 8-62, limits assumed); experiment: direct fluorescence titration of KED97L-FL; reference CBX8 ChD
T5 construct: domain: chromodomain; not shown: N-terminal His6 tag
T5 sequence (looked up): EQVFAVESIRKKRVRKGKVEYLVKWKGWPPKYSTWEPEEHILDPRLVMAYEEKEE

[6] = molecular target: T6, CBX2 chromodomain (CBX2 ChD), N-terminal His6-tagged recombinant protein (UniProt Q14781 9-66, limits assumed); experiment: direct fluorescence polarization, FAM-labelled ligand at 100 nM, ChD titrated
T6 construct: domain: chromodomain; Expressed in E. coli and purified on Ni-NTA; not shown: N-terminal His6 tag
T6 sequence (looked up): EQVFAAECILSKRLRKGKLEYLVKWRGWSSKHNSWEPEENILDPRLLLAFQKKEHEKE

[7] = molecular target: T7, CBX4 chromodomain (CBX4 ChD), N-terminal His6-tagged recombinant protein (UniProt O00257 8-65, limits assumed); experiment: as above
T7 construct: domain: chromodomain; not shown: N-terminal His6 tag
T7 sequence (looked up): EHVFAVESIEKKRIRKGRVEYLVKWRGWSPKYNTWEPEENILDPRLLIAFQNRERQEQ

[8] = molecular target: T8, CBX6 chromodomain (CBX6 ChD), N-terminal His6-tagged recombinant protein (UniProt O95503 8-65, limits assumed); experiment: as above
T8 construct: domain: chromodomain; not shown: N-terminal His6 tag
T8 sequence (looked up): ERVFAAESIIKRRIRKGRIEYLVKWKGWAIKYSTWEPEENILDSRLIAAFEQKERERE

[9] = molecular target: T5, CBX7 chromodomain (CBX7 ChD), …; experiment: as above
[10] = molecular target: T9, CBX8 chromodomain (CBX8 ChD), N-terminal His6-tagged recombinant protein (UniProt Q9HC52 8-61, limits assumed); experiment: as above
T9 construct: domain: chromodomain; not shown: N-terminal His6 tag
T9 sequence (looked up): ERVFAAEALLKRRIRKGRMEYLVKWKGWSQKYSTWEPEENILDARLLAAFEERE

[11] = molecular target: T6, CBX2 chromodomain (CBX2 ChD), …; experiment: competitive fluorescence polarization (FP) assay, displacement of the FITC-labelled probe
[12] = molecular target: T7, CBX4 chromodomain (CBX4 ChD), …; experiment: as above
[13] = molecular target: T8, CBX6 chromodomain (CBX6 ChD), …; experiment: as above
[14] = molecular target: T5, CBX7 chromodomain (CBX7 ChD), …; experiment: as above
[15] = molecular target: T9, CBX8 chromodomain (CBX8 ChD), …; experiment: as above
[16] = molecular target: T9, CBX8 chromodomain (CBX8 ChD), …; experiment: method not given
[17] = molecular target: CBX6 chromodomain (CBX6 ChD), N-terminal His6-tagged recombinant protein (UniProt O95503); experiment: competitive fluorescence polarization, displacement of FITC-labelled probe
[18] = molecular target: CBX7 chromodomain (CBX7 ChD), N-terminal His6-tagged recombinant protein (UniProt O95931); experiment: as above
[19] = molecular target: CBX8 chromodomain (CBX8 ChD), N-terminal His6-tagged recombinant protein (UniProt Q9HC52); experiment: as above
[20] = molecular target: CBX2 chromodomain (CBX2 ChD), N-terminal His6-tagged recombinant protein (UniProt Q14781); experiment: competitive fluorescence polarization (FP) assay, displacement of the FITC-labelled probe
[21] = molecular target: CBX4 chromodomain (CBX4 ChD), N-terminal His6-tagged recombinant protein (UniProt O00257); experiment: as above
[22] = molecular target: T6, CBX2 chromodomain (CBX2 ChD), …; experiment: Thermal Shift Assay of the non-derivatized ligand
[23] = molecular target: T8, CBX6 chromodomain (CBX6 ChD), …; experiment: direct fluorescence polarization, fluorescein-conjugated ligand
[24] = molecular target: T9, CBX8 chromodomain (CBX8 ChD), …; experiment: as above
[25] = molecular target: T9, CBX8 chromodomain (CBX8 ChD), …; experiment: direct fluorescence polarization; reference CBX2 ChD; CBX8 is the closest paralog by Table 3

B1: SW2_152F-B (biotinylated SW2_152F) (peptide)
peptide: PI[Lys(Et2)]S-{PEG4′-biotin}
modifications: also: Pro1 alpha-amino modified, group not given here, non-natural monomers
binding result [1]: no binding
binding result [2]: no binding
binding result [3]: binds
binding result [4]: no binding

B2: KED97L-FL (peptide)
peptide: {Isoxazole3carbonyl(5-Me)}-[Tyr(3-Cl)]VI[Lys(Et2)]S-{NH(propargyl)-triazole-5/6‑FAM}
notes: also called 97L fluorescein derivative; KED97L (as measured)
selectivity for CBX8 ChD over CBX7 ChD (fold) [5]: 20 fold
Kd [6]: 1.1 µM
Kd [7]: 2.7 µM
Kd [8]: 0.26 µM
Kd [9]: 4.7 µM
Kd [10]: 0.24 µM

B3: KED97 (peptide)
peptide: {Isoxazole3carbonyl(5-Me)}-[Tyr(3-Cl)]VI[Lys(Me3)]S-NH2
notes: Final PSL1 ligand with combined synthons
IC50 [11]: 21 µM
IC50 [12]: 49 µM
IC50 [13]: 4.4 µM
IC50 [14]: 60 µM
IC50 [15]: 9.5 µM

B4: KED97L-CA (chloroalkane-modified KED97L) (peptide)
peptide: {Isoxazole3carbonyl(5-Me)}-[Tyr(3-Cl)]VI[Lys(Et2)]S-{NH(propargyl)-triazole″-PEG2‑chloroalkane}
modifications: reading uncertain
Kd [16]: 0.4 µM

B5: KED98 (PP) (peptide)
chain: [Tyr(3-Cl)]PIK(trimethyl)S-NH2
modifications: also: N-terminal acylation, acyl group not given here
IC50 [17]: 34 µM
IC50 [18]: 83 µM
IC50 [19]: 14 µM
IC50 [20]: 46 µM
IC50 [21]: 173 µM

B6: SW2_152F (peptide)
peptide: PI[Lys(Et2)]S-{NH(propargyl)}
modifications: also: Pro1 alpha-amino modified, group not given here, non-natural monomers
notes: Non-derivatized ligand, used in the Thermal Shift Assay and in cells; also called CBX2i
Kd [22]: 0.11 µM

B7: SW2_152F-FL (library#77) (peptide)
peptide: PI[Lys(Et2)]S
modifications: not fully specified (C-terminus); also: Pro1 alpha-amino modified, group not given here (non-natural monomer)
notes: also called fluorescein-conjugated SW2_152F
Kd [23]: 9 µM
Kd [24]: 1.9 µM
selectivity for CBX2 over the other paralogs (fold) [25]: ≥ 24 fold
